T1: human TL1A (human, UniProt O95150 72-251, limits assumed)
T1 construct: The assays name only 'human TL1A protein'; also called huTL1A; Hu TL1A
T1 sequence (looked up): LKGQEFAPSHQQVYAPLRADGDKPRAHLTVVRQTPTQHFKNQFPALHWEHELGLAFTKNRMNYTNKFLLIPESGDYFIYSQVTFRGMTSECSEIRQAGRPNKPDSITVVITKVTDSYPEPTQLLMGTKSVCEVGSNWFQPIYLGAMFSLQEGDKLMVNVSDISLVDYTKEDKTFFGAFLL

T2: cynomolgus TL1A (cynomolgus monkey, UniProt G7PRK8 72-251)
T2 construct: also called cyno TL1A; cynomolgus monkey TL1A
T2 sequence: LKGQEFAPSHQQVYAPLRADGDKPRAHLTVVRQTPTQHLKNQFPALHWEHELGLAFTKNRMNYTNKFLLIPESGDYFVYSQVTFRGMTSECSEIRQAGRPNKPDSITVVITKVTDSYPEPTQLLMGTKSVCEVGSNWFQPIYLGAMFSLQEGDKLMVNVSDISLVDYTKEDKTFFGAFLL


Experiments:
human TL1A [1] = molecular target: T1, human TL1A; assay: SPR, Fab captured on anti-huFab chip, TL1A injected, 1:1 model
Protocol: (§1) On rate, off rate and equilibrium dissociation constant were calculated using 1:1 binding model on BIAevaluation software.

cynomolgus TL1A [2] = molecular target: T2, cynomolgus TL1A; assay: SPR, Fab captured on anti-huFab chip, TL1A injected
Protocol: as §1

cynomolgus TL1A [3] = molecular target: T2, cynomolgus TL1A; assay: cell-based or functional assay
human TL1A [4] = molecular target: T1, human TL1A; assay: cell-based or functional assay
cynomolgus TL1A [5] = molecular target: T2, cynomolgus TL1A; assay: SPR, Fab captured on anti-huFab chip, TL1A injected, 1:1 model
Protocol: as §1

cynomolgus TL1A [6] = molecular target: T2, cynomolgus TL1A; assay: SPR, mAb captured on anti-human Fc chip, TL1A injected, 1:1 model
Protocol: as §1

human TL1A [7] = molecular target: T1, human TL1A; assay: as above
Protocol: as §1

human TNF-α = molecular target: T3, human TNF-α (human, UniProt P01375 77-233); assay: SPR, bispecific captured on anti-human Fc chip, TNF injected, 1:1 model
T3 construct: also called Hu TNF; soluble hu TNF
Protocol: Goat anti-human Fc was first immobilized on SCM5 sensor chip using amine coupling. […] On rate, off rate and equilibrium dissociation constant were calculated using 1:1 binding model on BIAevaluation software.

human TL1A [8] = molecular target: T1, human TL1A; assay: SPR, bispecific captured on anti-human Fc chip, TL1A injected, 1:1 model
Protocol: as §1

T3 sequence (P01375 77-233 limits assumed): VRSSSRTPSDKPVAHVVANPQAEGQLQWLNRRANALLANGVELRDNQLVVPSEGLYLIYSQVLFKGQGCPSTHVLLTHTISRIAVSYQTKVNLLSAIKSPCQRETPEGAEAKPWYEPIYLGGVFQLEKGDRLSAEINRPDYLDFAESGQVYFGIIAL

Row | Binder | Kd (human TL1A [1]) | koff (human TL1A [1]) | NF-kB IC50 nM, cyno TL1A (2 nM) (cynomolgus TL1A [3]) | NF-kB IC50 nM, huTL1A (0.2 nM) (human TL1A [4]) | Kd (human TNF-α) | koff (human TNF-α) | kon (human TNF-α) | Kd (human TL1A [8]) | koff (human TL1A [8]) | kon (human TL1A [8]) | also measured
1 | anti-TL1A Fab 3C6 (Fab, V domains shown, Fab fragment; the Fab's constant parts are not; also called 3C6 Fab; PL-39193) VH: QVQLVESGGGVVQPGRSLRLSCAASGFTFSSYGMHWVRQAPGKGLEWVAVISYDGNNKLYTDSVKGRFTISRDDSKSTLYLQMNSLRAEDTAVYYCARDPTVTLYYYYGMDVWGQGTTVTVSS VL: DIQMTQSPSSLSASVGDRVTITCRTSQDIRDDLGWYQQKPGKAPKRLIYDASSLQSGVPSRFSGSGSGTEFTLTISSLQPEDFATYYCLQHNSYPPTFGQGTKVEIK | < 100 pM | < 5e-05 s⁻¹ | > 100 nM | 0.162 nM | – | – | – | – | – | – | binding result (cynomolgus TL1A [2]): no binding (tested: 100 nM)
2 | anti-TL1A Fab 23B3 (Fab, V domains shown, Fab fragment; the Fab's constant parts are not; also called 23B3 Fab; PL-38024) VH: QVQLQQSGPGLVKPSQTLSLTCVISGDSVSTNSVAWNWIRQSPSRGLEWLGRTYYRSKWYNDYAVSVKSRITINPDTSKNQFSLQLNSVTPEDTAVYYCAREDGDSYYRYGMDVWGQGTTVTVSS VL: not shown | 850 pM | 0.00064 s⁻¹ | 2.63 nM | 2.99 nM | – | – | – | – | – | – | Kd (cynomolgus TL1A [5]): 310 pM; koff (cynomolgus TL1A [5]): 0.00016 s⁻¹; kon (cynomolgus TL1A [5]): 530000 M⁻¹ s⁻¹; kon (human TL1A [1]): 760000 M⁻¹ s⁻¹
3 | anti-TL1A mAb 17E9 (antibody, human IgG1, kappa, N297G, V domains shown, also called PL-39113; iPS 284078) VH: QVQLVESGGGVVQPGRSLRLSCAASGFTLSSYGMHWVRQAPGKGLEWVAVMSYDGNNKLYADSVKGRFTISRDNSKKTLYLQMNSLRAEDTAVYYCARDETETLYYYYGIDVWGQGTTVTVSS VL: DIQMTQSPSSLSASVGDRVTITCRASQGISNDLAWYQQKPGKAPKRLIFAASSLQSGVPSRFSGSGSGTEFTLTISSLQPEDFATYYCLQHNSYPPTFGGGTKVEIKR | – | – | > 100 nM | 0.168 nM | – | – | – | – | – | – | Kd (cynomolgus TL1A [6]): 2800 pM; koff (cynomolgus TL1A [6]): 0.002 s⁻¹; kon (cynomolgus TL1A [6]): 730000 M⁻¹ s⁻¹; Kd (human TL1A [7]): 220 pM; koff (human TL1A [7]): 5.3e-05 s⁻¹; kon (human TL1A [7]): 250000 M⁻¹ s⁻¹

Continued, in another order:

Row | Kd (human TL1A [1]) | koff (human TL1A [1]) | NF-kB IC50 nM, cyno TL1A (2 nM) (cynomolgus TL1A [3]) | NF-kB IC50 nM, huTL1A (0.2 nM) (human TL1A [4]) | Kd (human TNF-α) | koff (human TNF-α) | kon (human TNF-α) | Kd (human TL1A [8]) | koff (human TL1A [8]) | kon (human TL1A [8]) | Binder | also measured
4 | – | – | – | – | 19 pM | 6.4e-05 s⁻¹ | 3.4e+06 M⁻¹ s⁻¹ | 250 pM | 0.00013 s⁻¹ | 540000 M⁻¹ s⁻¹ | hetero Ig certolizumab var/2G11 var, iPS 349461 (bispecific antibody, human IgG1, kappa, N297G, Heterotetramer with one arm against TNF-α and one against TL1A; also called PL-42787) light 1: not shown heavy 1: not shown light 2: DIQMTQSPSSLSASVGDRVTITCRASQSINNYLNWYQKKPGKAPKLLIYATSSLQSGVPSRFSGSGSGTDFSLTISSLQPEDFATYFCQQSYSTPRTFGQGTKVEIKRTVAAPSVFIFPPSDEQLKSGTASVVCLLNNFYPREAKVQWKVDNALQSGNSQESVTEQDSKDSTYSLKSTLTLSKADYEKHKVYACEVTHQGLSSPVTKSFNRGEC heavy 2: QVQLQESGPGLVKPSETLSLTCTVSGGSISSYFWSWIREPPGKGLEWIGYIYYSGSTNYNPSLKSRVTMSIDTSKNQFSLKLSSVTAADTAVYYCAREIGSYYGFDYWGQGTLVTVSSASTKGPSVFPLAPSSKSTSGGTAALGCLVKDYFPEPVTVSWNSGALTSGVHTFPAVLQSSGLYSLESVVTVPSSSLGTQTYICNVNHKPSNTKVDKKVEPKSCDKTHTCPPCPAPELLGGPSVFLFPPKPKDTLMISRTPEVTCVVVDVSHEDPEVKFNWYVDGVEVHNAKTKPCEEQYGSTYRCVSVLTVLHQDWLNGKEYKCKVSNKALPAPIEKTISKAKGQPREPQVYTLPPSRKEMTKNQVSLTCLVKGFYPSDIAVEWESNGQPENNYKTTPPVLKSDGSFFLYSKLTVDKSRWQQGNVFSCSVMHEALHNHYTQKSLSLSPGK | –
5 | – | – | – | – | 16 pM | 5.5e-05 s⁻¹ | 3.4e+06 M⁻¹ s⁻¹ | 640 pM | 0.0004 s⁻¹ | 630000 M⁻¹ s⁻¹ | hetero Ig certolizumab var/23B3 VH4, iPS 349463 (bispecific antibody, human IgG1, kappa, N297G, Heterotetramer with one arm against TNF-α and one against TL1A; also called PL-42788) light 1: not shown heavy 1: not shown light 2: not shown heavy 2: QVQLQESGPGLVKPSETLSLTCTISGDSVSTNSVAWNWIREPPGKGLEWIGRTYYRSKWYNDYAVSLKSRVTISPDTSKNQFSLKLSSVTAADTAVYYCAREDGDSYYRYGMDVWGQGTTVTVSSASTKGPSVFPLAPSSKSTSGGTAALGCLVKDYFPEPVTVSWNSGALTSGVHTFPAVLQSSGLYSLESVVTVPSSSLGTQTYICNVNHKPSNTKVDKKVEPKSCDKTHTCPPCPAPELLGGPSVFLFPPKPKDTLMISRTPEVTCVVVDVSHEDPEVKFNWYVDGVEVHNAKTKPCEEQYGSTYRCVSVLTVLHQDWLNGKEYKCKVSNKALPAPIEKTISKAKGQPREPQVYTLPPSRKEMTKNQVSLTCLVKGFYPSDIAVEWESNGQPENNYKTTPPVLKSDGSFFLYSKLTVDKSRWQQGNVFSCSVMHEALHNHYTQKSLSLSPGK | –
